Measured values as given in US20230052153A1 (NEWSOUTH INNOVATIONS, published 2023).
Values belong to the binder of their own block, whether it stands above or below them.

Target: T1, human FcγRIIa receptor (human, UniProt P12318 34-317)
T1 construct: whole, on cells; also called CD32
T1 sequence (looked up): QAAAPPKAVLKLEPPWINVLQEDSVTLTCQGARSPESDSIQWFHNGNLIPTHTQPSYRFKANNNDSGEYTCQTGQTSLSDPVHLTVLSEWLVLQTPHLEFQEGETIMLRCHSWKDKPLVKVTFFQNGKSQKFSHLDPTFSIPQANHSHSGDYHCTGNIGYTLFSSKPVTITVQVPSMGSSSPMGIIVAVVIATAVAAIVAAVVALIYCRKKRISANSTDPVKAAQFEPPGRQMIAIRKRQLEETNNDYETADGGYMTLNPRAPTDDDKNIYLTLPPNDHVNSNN
Assay: flow cytometry on human platelets, 2 µM scFv, detected with anti-c-Myc-AF-488
Method: Platelet-rich plasma (PRP) was obtained from whole blood after centrifugation at 200×g for 10 minutes. Washing/Suspension buffer (PBS, 0.5% BSA, 25 mM EDTA, pH 6.8) was used for platelet preparation throughout the experiment. 4 μl of PRP was incubated with HRU molecules (2 μM) for 30 minutes. Cells were washed once with 500 μl of buffer (PBS, 0.5% BSA, 25 mM EDTA, pH 6.8) and incubated with anti-c-Myc-AF-488. After washing, platelets were suspended in 200 μl of PBS and analyzed by flow cytometry (CantoII, BD Biosciences). Anti-c-Myc-AF-488 in the absence of HRU was used as negative control.

binding result: binds
B1: HRU4 (HRU1 with mutations) (scFv)
scFv: EVQLVESGPELKKPGETVKISCKASGYTFTNYGMNWVKQAPGKGLKWMGWLNTYTGESIYPDDFKGRFAFSLETSASTAYLQINNLKSEDTATYFCARGDYGYDDPLDYWGQGTSVTVSSGGGGSGGGGSGGGGSDIVMTQAPPSVPVTPGESVSISCRSSKSLLHTNGNTYLHWFLQKPGQSPRLLIYRMSVLASGVPDRFSGSGSGTDFTLKISRVEAEDVGVYYCMQHLEYPLTFGAGTKLEIKRAEQKLISEEDL
notes: also called H4

binding result: binds
B2: HRU2 (HRU1 linked to bivalirudin) (scFv)
scFv: EVKLVESGPELKKPGETVKISCKASGYTFTNYGMNWVKQAPGKGLKWMGWLNTYTGESIYPDDFKGRFAFSLETSASTAYLQINNLKSEDTATYFCARGDYGYDDPLDYWGQGTSVTVSSGGGGSGGGGSGGGGSDIVMTQAPPSVPVTPGESVSISCRSSKSLLHTNGNTYLHWFLQRPGQSPRLLIYRMSVLASGVPDRFSGSGSGTAFTLSISRVEAEDVGVYYCMQHLEYPLTFGAGTKLEIKRAGGGGSGGGGSGGGGFPRPGGGGNGDFEEIPEEYL
notes: scFv fused to bivalirudin; also called H2
